This test deals with human voltage-gated sodium channel hNav1.1 (hSCN1A) (human) (UniProt P35498). Description: cell-based or functional assay.

recombinant Hm1b (peptide), sequence (P0DOC5 1-34, tags left off): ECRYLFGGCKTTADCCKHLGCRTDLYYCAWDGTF

For the substance recombinant Hm1b (peptide), the EC50 for evoking sustained currents turned out to be 18.5 nM.

Source of the values: patent US11124550.
